Among the data in US20120058906A1 (published 2012) are ECL signal values, retold here.

Assay [1] addresses T1, rHuman EGF R/Fc Chimera, CF (R&D Systems Cat#344-ER) (human, UniProt P00533 25-645).
T1 construct: Bought Fc chimera; also called ErbB-1; not shown: Fc of the bought chimera
Briefly: ECL (MSD multi-spot), antigen on plate, Fab 0.5 nM.

In assay [2] the target is T2, rHuman Erythropoietin R/Fc Chimera, CF (R&D Systems Cat#963-ER) (human, UniProt P19235 25-250).
T2 construct: Bought Fc chimera; also called EPO R/Fc; Epo R; not shown: Fc of the bought chimera
T2 sequence: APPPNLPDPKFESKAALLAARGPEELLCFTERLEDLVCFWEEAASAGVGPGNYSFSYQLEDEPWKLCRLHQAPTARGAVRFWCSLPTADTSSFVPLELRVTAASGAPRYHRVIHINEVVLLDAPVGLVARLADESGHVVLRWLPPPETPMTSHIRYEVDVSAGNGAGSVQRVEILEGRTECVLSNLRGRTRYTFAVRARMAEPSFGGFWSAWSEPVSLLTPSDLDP
The assay can be described thus: ECL (MSD multi-spot), antigen on plate, Fab 0.5 nM.

In assay [3] the target is T3, rHuman CD44/Fc Chimera, CF (R&D Systems Cat#3660-CD) (human, UniProt P16070 21-220).
T3 construct: Bought Fc chimera; not shown: Fc of the bought chimera
The assay can be described thus: ECL (MSD multi-spot), antigen on plate, Fab 0.5 nM.

The target of assay [4] is T4, rHuman ErbB2/Fc Chimera, CF (R&D Systems Cat#1129-ER) (human, UniProt P04626 23-652).
T4 construct: Bought Fc chimera; also called HER2/neu; not shown: Fc of the bought chimera
The assay can be described thus: ECL (MSD multi-spot), antigen on plate, Fab 0.5 nM.

Assay [5] concerns the target T5, rHuman HGF R/c-MET/Fc Chimera, CF (R&D Systems Cat#358-MT/CF) (human, UniProt P08581 25-932).
T5 construct: Bought Fc chimera; also called HGF R/Fc; not shown: Fc of the bought chimera
The assay can be described thus: ECL (MSD multi-spot), antigen on plate, Fab 0.5 nM.

Assay [6] has as its target T6, rHuman IGF-1 sR (insulin-like growth factor-1 soluble receptor), CF (R&D Systems Cat#391-GR) (human, UniProt P08069 31-932).
T6 construct: Bought soluble receptor; also called IGF-R1
Briefly: ECL (MSD multi-spot), antigen on plate, Fab 0.5 nM.

The target in assay [7] is T2, rHuman Erythropoietin R/Fc Chimera, CF …. The assay can be described thus: ECL (MSD multi-spot), antigen on plate, Fab 10 nM.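 Further: blank spot per well as comparator with Hit at signal to blank ratio of 4 or more.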
Assay [8] addresses T7, rHuman Notch-1/Fc Chimera, CF (R&D Systems Cat#3647-TK) (human, UniProt P46531 19-526).
T7 construct: Bought Fc chimera; not shown: Fc of the bought chimera
Briefly: ECL (MSD multi-spot), antigen on plate, Fab 10 nM.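 Further: blank spot per well as comparator with Hit at signal to blank ratio of 4 or more.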

The target in assay [9] is T4, rHuman ErbB2/Fc Chimera, CF (R&D …). The assay can be described thus: ECL (MSD multi-spot), antigen on plate, Fab 10 nM.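 Further: blank spot per well as comparator with Hit at signal to blank ratio of 4 or more.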
In assay [10] the target is T5, rHuman HGF R/c-MET/Fc Chimera, CF (R&D …). The assay can be described thus: ECL (MSD multi-spot), antigen on plate, Fab 10 nM.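 Further: blank spot per well as comparator with Hit at signal to blank ratio of 4 or more.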
Assay [11] addresses T8, Recombinant Human DLL4 (R&D Systems Cat#1506-D4/CF) (human, UniProt Q9NR61 27-524).
T8 construct: Bought recombinant protein; also called delta-like protein 4
The assay can be described thus: ECL (MSD multi-spot), antigen on plate, Fab 10 nM.

In assay [12] the target is T9, rHuman P-Cadherin/Fc Chimera, CF (R&D Systems Cat#861-PC) (human, UniProt P22223 108-654).
T9 construct: Bought Fc chimera; also called CDH3; not shown: Fc of the bought chimera
The assay can be described thus: ECL (MSD multi-spot), antigen on plate, Fab 10 nM.

Assay [13] deals with T10, Recombinant Human DLL4 (R&D Systems Cat#1506-D4/CF) (human, UniProt Q9NR61 27-524).
T10 construct: also called delta-like protein 4
The assay can be described thus: MSD ECL multi-spot plate; Fab 32.5 nM; blank spot 473.

Assay [14] addresses T11, rHuman HGF R/c-MET/Fc Chimera, CF (R&D Systems Cat#358-MT/CF) (human, UniProt P08581 25-932).
T11 construct: also called HGF R/Fc; hepatocyte growth factor receptor; Fc part of the bought chimera not given
Described as above.

In assay [15] the target is T12, rHuman ErbB2/Fc Chimera, CF (R&D Systems Cat#1129-ER) (human, UniProt P04626 23-652).
T12 construct: also called HER2/neu; human epidermal growth factor 2 receptor; Fc part of the bought chimera not given
Described as above.

Assay [16] has as its target T13, rHuman EGF R/Fc Chimera, CF (R&D Systems Cat#344-ER) (human, UniProt P00533 25-645).
T13 construct: also called epidermal growth factor receptor; Fc part of the bought chimera not given
The assay is described as above.

The target in assay [17] is T14, rHuman Notch-1/Fc Chimera, CF (R&D Systems Cat#3647-TK) (human, UniProt P46531 19-526).
T14 construct: Fc part of the bought chimera not given
The description is as above.

The target in assay [18] is T15, rHuman IGF-1 sR, (IGF-1 sR), CF (R&D Systems Cat#391-GR) (human, UniProt P08069 31-932).
T15 construct: also called insulin-like growth factor-1 soluble receptor; IGF-R1
Described as above.

In assay [19] the target is T16, rHuman CD44/Fc Chimera, CF (R&D Systems Cat#3660-CD) (human, UniProt P16070 21-220).
T16 construct: Fc part of the bought chimera not given
Described as above.

Assay [20] deals with T17, rHuman Erythropoietin R/Fc Chimera, CF (R&D Systems Cat#963-ER) (human, UniProt P19235 25-250).
T17 construct: also called EPO R/Fc; Epo R; Fc part of the bought chimera not given
T17 sequence: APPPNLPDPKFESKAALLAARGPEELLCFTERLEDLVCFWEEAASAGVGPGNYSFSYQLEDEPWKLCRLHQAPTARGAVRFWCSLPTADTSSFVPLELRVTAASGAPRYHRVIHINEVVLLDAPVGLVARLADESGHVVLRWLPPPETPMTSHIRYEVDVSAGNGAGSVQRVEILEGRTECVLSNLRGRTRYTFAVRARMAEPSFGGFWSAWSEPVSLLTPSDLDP
The assay is described as above.

B1: Fab VH1-46_IGHD6-6*01_IGHJ1*01_S102A_S103P_S104Y_H111Y & L6_IGKJ1*01 (Fab, V domains shown)
VH: QVQLVQSGAEVKKPGASVKVSCKASGYTFTSYYMHWVRQAPGQGLEWMGIINPSGGSTSYAQKFQGRVTMTRDTSTSTVYMELSSLRSEDTAVYYCAREEYAPYSAEYFQYWGQGTLVTVSS
VL: not shown
notes: Fab made in E. coli; The heavy chain also carries CH1 with Flag and His tags from Plasmid A, and the light chain carries kappa CL from Plasmid C
On to B1, for which the ECL signal in assay [1] was 1750 ECL signal; in assay [2] it was 1840 ECL signal; in assay [3] it was 1560 ECL signal; in assay [4], 1720 ECL signal; in assay [5], 1690 ECL signal; in assay [6], 1660 ECL signal.

B2: Fab VH1-46_IGHD6-6*01_IGHJ1*01_S102A_S103P_S104F & L6_IGKJ1*01_S31K (Fab, V domains shown)
VH: QVQLVQSGAEVKKPGASVKVSCKASGYTFTSYYMHWVRQAPGQGLEWMGIINPSGGSTSYAQKFQGRVTMTRDTSTSTVYMELSSLRSEDTAVYYCAREEYAPFSAEYFQHWGQGTLVTVSS
VL: EIVLTQSPATLSLSPGERATLSCRASQSVSKYLAWYQQKPGQAPRLLIYDASNRATGIPARFSGSGSGTDFTLTISSLEPEDFAVYYCQQRSNWPPWTFGQGTKVEIKR
notes: Fab
Consider B2, for which the ECL signal came out at 392 ECL signal in [7]; 388 ECL signal in assay [8]; 303 ECL signal in assay [9]; 271 ECL signal in assay [10]; 29800 ECL signal in [11]; 240 ECL signal in assay [12].

B3: Fab VH1-8_IGHD2-2*01_IGHJ6*01 & L12_IGKJ1*01 (Fab, V domains shown)
VH: QVQLVQSGAEVKKPGASVKVSCKASGYTFTSYDINWVRQATGQGLEWMGWMNPNSGNTGYAQKFQGRVTMTRNTSISTAYMELSSLRSEDTAVYYCARGGYCSSTSCYADYYYYYGMDVWGQGTTVTVSS
VL: not shown
Consider B3, for which the ECL signal is 2990 ECL signal in [13]; 525 ECL signal in assay [14]; 556 ECL signal in assay [15]; 645 ECL signal in assay [16]; 706 ECL signal in assay [17]; 561 ECL signal in assay [18]. Further, the ECL signal worked out at 573 ECL signal in [19] and 673 ECL signal in [20].
